Data reported in PMC11058771.

Target: mouse teneurin-3 A1B1 complete extracellular domain (ECD, residues 342-2715) (mouse) (UniProt Q9WTS6)
Assay: SEC-MALS; purified ECD, 0.5 mg/mL in 20 mM HEPES pH 7.8, 150 mM NaCl, 2 mM CaCl2, Superose6 Increase 10/300 GL; also SDS-PAGE with or without beta-mercaptoethanol; covalent (disulphide-linked) dimer

stoichiometry N: 2
Substance: mouse teneurin-3 A1B1 complete extracellular domain (ECD, residues 342-2715), Q9WTS6-1 342-2715
